Experiments:
[1] = test system: GFP-14-3-3β and its binding proteins; assay: GFP-14-3-3β co-IP with LC-MS/MS label-free quantification, untreated versus PP1c-treated; design: species or system human; conditions: GFP-14-3-3β co-IP LC-MS/MS; PP1 vs untreated; student's t-test; label-free quantification, 3 replicates each
GFP-14-3-3β = GFP-14-3-3β co-IP with LC-MS/MS, untreated GFP-14-3-3β versus GFP control (14-3-3 interactome); format: binding, human; conditions: GFP-14-3-3β co-IP LC-MS/MS; untreated vs GFP; student's t-test; label-free quantification, 3 replicates each

Molecule | Difference (log2), PP1 vs untreated [1] | Difference (log2), untreated vs GFP (GFP-14-3-3β)
ABCF3 (protein, UniProt Q9NUQ8 2-709, looked up) ATP-binding cassette …: ATCAEILRSEFPEIDGQVFDYVTGVLHSGSADFESVDDLVEAVGELLQEVSGDSKDDAGIRAVCQRMYNTLRLAEPQSQGNSQVLLDAPIQLSKITENYDCGTKLPGLLKREQSSTVNAKKLEKAEARLKAKQEKRSEKDTLKTSNPLVLEEASASQAGSRKESRLESSGKNKSYDVRIENFDVSFGDRVLLAGADVNLAWGRRYGLVGRNGLGKTTLLKMLATRSLRVPAHISLLHVEQEVAGDDTPALQSVLESDSVREDLLRRERELTAQIAAGRAEGSEAAELAEIYAKLEEIEADKAPARASVILAGLGFTPKMQQQPTREFSGGWRMRLALARALFARPDLLLLDEPTNMLDVRAILWLENYLQTWPSTILVVSHDRNFLNAIATDIIHLHSQRLDGYRGDFETFIKSKQERLLNQQREYEAQQQYRQHIQVFIDRFRYNANRASQVQSKLKMLEKLPELKPVDKESEVVMKFPDGFEKFSPPILQLDEVDFYYDPKHVIFSRLSVSADLESRICVVGENGAGKSTMLKLLLGDLAPVRGIRHAHRNLKIGYFSQHHVEQLDLNVSAVELLARKFPGRPEEEYRHQLGRYGISGELAMRPLASLSGGQKSRVAFAQMTMPCPNFYILDEPTNHLDMETIEALGRALNNFRGGVILVSHDERFIRLVCRELWVCEGGGVTRVEGGFDQYRALLQEQFRREGFL | -0.3214 log2 | 1.23 log2
HNRNPUL1 (protein, UniProt Q9BUJ2 1-856, looked up) Heterogeneous nuclear …: MDVRRLKVNELREELQRRGLDTRGLKAELAERLQAALEAEEPDDERELDADDEPGRPGHINEEVETEGGSELEGTAQPPPPGLQPHAEPGGYSGPDGHYAMDNITRQNQFYDTQVIKQENESGYERRPLEMEQQQAYRPEMKTEMKQGAPTSFLPPEASQLKPDRQQFQSRKRPYEENRGRGYFEHREDRRGRSPQPPAEEDEDDFDDTLVAIDTYNCDLHFKVARDRSSGYPLTIEGFAYLWSGARASYGVRRGRVCFEMKINEEISVKHLPSTEPDPHVVRIGWSLDSCSTQLGEEPFSYGYGGTGKKSTNSRFENYGDKFAENDVIGCFADFECGNDVELSFTKNGKWMGIAFRIQKEALGGQALYPHVLVKNCAVEFNFGQRAEPYCSVLPGFTFIQHLPLSERIRGTVGPKSKAECEILMMVGLPAAGKTTWAIKHAASNPSKKYNILGTNAIMDKMRVMGLRRQRNYAGRWDVLIQQATQCLNRLIQIAARKKRNYILDQTNVYGSAQRRKMRPFEGFQRKAIVICPTDEDLKDRTIKRTDEEGKDVPDHAVLEMKANFTLPDVGDFLDEVLFIELQREEADKLVRQYNEEGRKAGPPPEKRFDNRGGGGFRGRGGGGGFQRYENRGPPGGNRGGFQNRGGGSGGGGNYRGGFNRSGGGGYSQNRWGNNNRDNNNSNNRGSYNRAPQQQPPPQQPPPPQPPPQQPPPPPSYSPARNPPGASTYNKNSNIPGSSANTSTPTVSSYSPPQPSYSQPPYNQGGYSQGYTAPPPPPPPPPAYNYGSYGGYNPAPYTPPPPPTAQTYPQPSYNQYQQYAQQWNQYYQNQGQWPPYYGNYDYGSYSGNTQGGTSTQ | -0.3133 log2 | 0.2278 log2
PWP2 (protein, UniProt Q15269 1-919, looked up) Periodic tryptophan protein 2 …: MKFAYRFSNLLGTVYRRGNLNFTCDGNSVISPVGNRVTVFDLKNNKSDTLPLATRYNVKCVGLSPDGRLAIIVDEGGDALLVSLVCRSVLHHFHFKGSVHSVSFSPDGRKFVVTKGNIAQMYHAPGKKREFNAFVLDKTYFGPYDETTCIDWTDDSRCFVVGSKDMSTWVFGAERWDNLIYYALGGHKDAIVACFFESNSLDLYSLSQDGVLCMWQCDTPPEGLRLKPPAGWKADLLQREEEEEEEEDQEGDRETTIRGKATPAEEEKTGKVKYSRLAKYFFNKEGDFNNLTAAAFHKKSHLLVTGFASGIFHLHELPEFNLIHSLSISDQSIASVAINSSGDWIAFGCSGLGQLLVWEWQSESYVLKQQGHFNSMVALAYSPDGQYIVTGGDDGKVKVWNTLSGFCFVTFTEHSSGVTGVTFTATGYVVVTSSMDGTVRAFDLHRYRNFRTFTSPRPTQFSCVAVDASGEIVSAGAQDSFEIFVWSMQTGRLLDVLSGHEGPISGLCFNPMKSVLASASWDKTVRLWDMFDSWRTKETLALTSDALAVTFRPDGAELAVATLNSQITFWDPENAVQTGSIEGRHDLKTGRKELDKITAKHAAKGKAFTALCYSADGHSILAGGMSKFVCIYHVREQILMKRFEISCNLSLDAMEEFLNRRKMTEFGNLALIDQDAGQEDGVAIPLPGVRKGDMSSRHFKPEIRVTSLRFSPTGRCWAATTTEGLLIYSLDTRVLFDPFELDTSVTPGRVREALRQQDFTRAILMALRLNESKLVQEALEAVPRGEIEVVTSSLPELYVEKVLEFLASSFEVSRHLEFYLLWTHKLLMLHGQKLKSRAGTLLPVIQFLQKSIQRHLDDLSKLCSWNHYNMQYALAVSKQRGTKRSLDPLGSEEEAEASEDDSLHLLGGGGRDSEEEMLA | -0.2929 log2 | 0.9621 log2

Continued, in another order:

Difference (log2), PP1 vs untreated [1] | Molecule | Difference (log2), untreated vs GFP (GFP-14-3-3β)
-0.3533 log2 | RRP15 (protein, UniProt Q9Y3B9 2-282, looked up) RRP15-like protein: AAAAPDSRVSEEENLKKTPKKKMKMVTGAVASVLEDEATDTSDSEGSCGSEKDHFYSDDDAIEADSEGDAEPCDKENENDGESSVGTNMGWADAMAKVLNKKTPESKPTILVKNKKLEKEKEKLKQERLEKIKQRDKRLEWEMMCRVKPDVVQDKETERNLQRIATRGVVQLFNAVQKHQKNVDEKVKEAGSSMRKRAKLISTVSKKDFISVLRGMDGSTNETASSRKKPKAKQTEVKSEEGPGWTILRDDFMMGASMKDWDKESDGPDDSRPESASDSDT | 0.6496 log2
-0.3489 log2 | IPO7 (protein, UniProt O95373 1-1038, looked up) Importin-7: MDPNTIIEALRGTMDPALREAAERQLNEAHKSLNFVSTLLQITMSEQLDLPVRQAGVIYLKNMITQYWPDRETAPGDISPYTIPEEDRHCIRENIVEAIIHSPELIRVQLTTCIHHIIKHDYPSRWTAIVDKIGFYLQSDNSACWLGILLCLYQLVKNYEYKKPEERSPLVAAMQHFLPVLKDRFIQLLSDQSDQSVLIQKQIFKIFYALVQYTLPLELINQQNLTEWIEILKTVVNRDVPNETLQVEEDDRPELPWWKCKKWALHILARLFERYGSPGNVSKEYNEFAEVFLKAFAVGVQQVLLKVLYQYKEKQYMAPRVLQQTLNYINQGVSHALTWKNLKPHIQGIIQDVIFPLMCYTDADEELWQEDPYEYIRMKFDVFEDFISPTTAAQTLLFTACSKRKEVLQKTMGFCYQILTEPNADPRKKDGALHMIGSLAEILLKKKIYKDQMEYMLQNHVFPLFSSELGYMRARACWVLHYFCEVKFKSDQNLQTALELTRRCLIDDREMPVKVEAAIALQVLISNQEKAKEYITPFIRPVMQALLHIIRETENDDLTNVIQKMICEYSEEVTPIAVEMTQHLAMTFNQVIQTGPDEEGSDDKAVTAMGILNTIDTLLSVVEDHKEITQQLEGICLQVIGTVLQQHVLEFYEEIFSLAHSLTCQQVSPQMWQLLPLVFEVFQQDGFDYFTDMMPLLHNYVTVDTDTLLSDTKYLEMIYSMCKKVLTGVAGEDAECHAAKLLEVIILQCKGRGIDQCIPLFVEAALERLTREVKTSELRTMCLQVAIAALYYNPHLLLNTLENLRFPNNVEPVTNHFITQWLNDVDCFLGLHDRKMCVLGLCALIDMEQIPQVLNQVSGQILPAFILLFNGLKRAYACHAEHENDSDDDDEAEDDDETEELGSDEDDIDEDGQEYLEILAKQAGEDGDDEDWEEDDAEETALEGYSTIIDDEDNPVDEYQIFKAIFQTIQNRNPVWYQALTHGLNEEQRKQLQDIATLADQRRAAHESKMIEKHGGYKFSAPVVPSSFNFGGPAPGMN | 0.3162 log2
-0.336 log2 | IARS (protein, UniProt P41252 1-1262, looked up) Isoleucine--tRNA ligase, …: MLQQVPENINFPAEEEKILEFWTEFNCFQECLKQSKHKPKFTFYDGPPFATGLPHYGHILAGTIKDIVTRYAHQSGFHVDRRFGWDCHGLPVEYEIDKTLGIRGPEDVAKMGITEYNNQCRAIVMRYSAEWKSTVSRLGRWIDFDNDYKTLYPQFMESVWWVFKQLYDKGLVYRGVKVMPFSTACNTPLSNFESHQNYKDVQDPSVFVTFPLEEDETVSLVAWTTTPWTLPSNLAVCVNPEMQYVKIKDVARGRLLILMEARLSALYKLESDYEILERFPGAYLKGKKYRPLFDYFLKCKENGAFTVLVDNYVKEEEGTGVVHQAPYFGAEDYRVCMDFNIIRKDSLPVCPVDASGCFTTEVTDFAGQYVKDADKSIIRTLKEQGRLLVATTFTHSYPFCWRSDTPLIYKAVPSWFVRVENMVDQLLRNNDLCYWVPELVREKRFGNWLKDARDWTISRNRYWGTPIPLWVSDDFEEVVCIGSVAELEELSGAKISDLHRESVDHLTIPSRCGKGSLHRISEVFDCWFESGSMPYAQVHYPFENKREFEDAFPADFIAEGIDQTRGWFYTLLVLATALFGQPPFKNVIVNGLVLASDGQKMSKRKKNYPDPVSIIQKYGADALRLYLINSPVVRAENLRFKEEGVRDVLKDVLLPWYNAYRFLIQNVLRLQKEEEIEFLYNENTVRESPNITDRWILSFMQSLIGFFETEMAAYRLYTVVPRLVKFVDILTNWYVRMNRRRLKGENGMEDCVMALETLFSVLLSLCRLMAPYTPFLTELMYQNLKVLIDPVSVQDKDTLSIHYLMLPRVREELIDKKTESAVSQMQSVIELGRVIRDRKTIPIKYPLKEIVVIHQDPEALKDIKSLEKYIIEELNVRKVTLSTDKNKYGIRLRAEPDHMVLGKRLKGAFKAVMTSIKQLSSEELEQFQKTGTIVVEGHELHDEDIRLMYTFDQATGGTAQFEAHSDAQALVLLDVTPDQSMVDEGMAREVINRIQKLRKKCNLVPTDEITVYYKAKSEGTYLNSVIESHTEFIFTTIKAPLKPYPVSPSDKVLIQEKTQLKGSELEITLTRGSSLPGPACAYVNLNICANGSEQGGVLLLENPKGDNRLDLLKLKSVVTSIFGVKNTELAVFHDETEIQNQTDLLSLSGKTLCVTAGSAPSLINSSSTLLCQYINLQLLNAKPQECLMGTVGTLLLENPLGQNGLTHQGLLYEAAKVFGLRSRKLKLFLNETQTQEITEDIPVKTLNMKTVYVSVLPTTADF | -0.1582 log2

— article PMC7367873, “Dissecting the sequence determinants for dephosphorylation by the catalytic subunits of phosphatases PP1 and PP2A” (Nature Communications, 2020)
